Patent publication US20240382614A1, “Self-Assembling Nanoparticles Based On Amphiphilic Peptides for Drug Delivery Applications” (Barinthus Biotherapeutics North America, Inc., priority 2021, published 2024)

Columns and labels:
[1] = system: coculture of antigen presenting cells and CD4 T cell clones (“OT-II cells”); test: IFNγ and IL-17 in supernatant of coculture of antigen presenting cells and OT-II CD4 T cell clones; type: cell-based; settings: D1 in particles of Compound 113 with D2 Compound 166, with or without D3 Compound 4 (Table 10)
Experimental: The cell culture supernatant was assessed for the cytokines IFNγ and IL-17 to assess for the proliferation of Th1- and Th17-type CD4 T cells, respectively (FIG. 11).

[2] = Turbidity (OD 490 nm) of particle formulations; type: physicochemical; settings: Table 15; no 2nd amphiphile
Experimental: It was unknown how the surface group (SG) would impact the tolerability of amphiphiles of formula S-B-H-D carrying an immunostimulant. Therefore, to evaluate the impact of surface group composition on tolerability, amphiphiles of varying SG and drug molecule composition were prepared and evaluated in mice (Table 15 and FIG. 14).

[3] = Solubility and loading of mTOR inhibitors in nanoparticle micelles of amphiphiles S-B-[U]-H; type: physicochemical; settings: admixed with amphiphile Compound 113
[4] = system: coculture of antigen presenting cells and CD4 T cell clones (“OT-II cells”); test: CD4 T cell induction in coculture of antigen presenting cells and OT-II CD4 T cell clones; type: cell-based; settings: D1 in particles of Compound 113 with D2 Compound 166 and D3 MDP, TDB, MPL, LPS or Compound 4 (Table 9, FIG. 10)
[5] = system: T1, Ac-A′SKSB-AMC (Compound 19)
T1 sequence: XSKSX

[6] = system: T2, Ac-A′SPVB-AMC (Compound 15)
T2 sequence: XSPVX

[7] = system: T3, Ac-A′VnL-AMC (Compound 20)
T3 sequence: XVX

[8] = system: T4, Ac-A′SKVB-AMC (Compound 17)
T4 sequence: XSKVX

[9] = system: T5, Ac-A′SK(Ac)SnL-AMC (Compound 24)
T5 sequence: XSKSX

[10] = system: T6, Ac-A′SK(Ac)VnL-AMC (Compound 22)
T6 sequence: XSKVX

[11] = system: T7, Ac-A′VB-AMC (Compound 14)
T7 sequence: XVX

[12] = system: T8, Ac-A′SPVnL-AMC (Compound 21)
T8 sequence: XSPVX

[13] = system: T9, Ac-A′SKSnL-AMC (Compound 25)
T9 sequence: XSKSX

[14] = system: T10, Ac-A′SK(Ac)VB-AMC (Compound 16)
T10 sequence: XSKVX

[15] = system: T11, Ac-A′SK(Ac)SB-AMC (Compound 18)
T11 sequence: XSKSX

[16] = system: T12, Ac-A′SKVnL-AMC (Compound 23)
T12 sequence: XSKVX

In the case of `CC(C)n1nc(-c2ccc3oc(N)nc3c2)c2c(N)ncnc21` [INK-128], the “suppression of Th1-type CD4 T cell response (IFNγ)” value (“suppression … (IFNγ)” below) [1] was “substantially improved T cell response suppression as compared with Rapa, CC223 and OSI-027”.

In the case of `CCOCc1nc2c(N)nc3ccccc3c2n1CC(C)(C)O` [Compound R848], the Turbidity [2] was 0.039.

For `CCC(=O)N1CCN(c2ccc(-n3c(=O)ccc4cnc5ccc(-c6cnc7ccccc7c6)cc5c43)cc2C(F)(F)F)CC1` [Torin 1], the “solubility in DMSO and aqueous buffer” value [3] was “markedly improved the solubility”, the “suppression … (IFNγ)” value [1] was “substantially improved T cell response suppression as compared with Rapa, CC223 and OSI-027” and the “suppression of T cell responses against D2” value [4] was “greater T cell suppression as compared with Rapamycin”.

In the case of Cathepsin B (Sino Biological), the “percent of peptide-AMC that is cleaved” value [5] was “norleucine (nL) and alpha-amino butyric (B or aBut) are tolerated at the P1 position”, the “percent of peptide-AMC that is cleaved” value [6] was “norleucine (nL) and alpha-amino butyric (B or aBut) are tolerated at the P1 position” and the “percent of peptide-AMC that is cleaved” value [7] was “norleucine (nL) and alpha-amino butyric (B or aBut) are tolerated at the P1 position”. The “percent of peptide-AMC that is cleaved” value [8] was “norleucine (nL) and alpha-amino butyric (B or aBut) are tolerated at the P1 position”, the “percent of peptide-AMC that is cleaved” value [9] was “norleucine (nL) and alpha-amino butyric (B or aBut) are tolerated at the P1 position” and the “percent of peptide-AMC that is cleaved” value [10] was “norleucine (nL) and alpha-amino butyric (B or aBut) are tolerated at the P1 position”. The “percent of peptide-AMC that is cleaved” value [11] was “norleucine (nL) and alpha-amino butyric (B or aBut) are tolerated at the P1 position”, the “percent of peptide-AMC that is cleaved” value [12] was “norleucine (nL) and alpha-amino butyric (B or aBut) are tolerated at the P1 position” and the “percent of peptide-AMC that is cleaved” value [13] was “norleucine (nL) and alpha-amino butyric (B or aBut) are tolerated at the P1 position”. The “percent of peptide-AMC that is cleaved” value [14] was “norleucine (nL) and alpha-amino butyric (B or aBut) are tolerated at the P1 position”, the “percent of peptide-AMC that is cleaved” value [15] was “norleucine (nL) and alpha-amino butyric (B or aBut) are tolerated at the P1 position” and the “percent of peptide-AMC that is cleaved” value [16] was “norleucine (nL) and alpha-amino butyric (B or aBut) are tolerated at the P1 position”.

With `CNC(=O)Nc1ccc(-c2nc(N3CC4CCC(C3)O4)c3cnn(C4CCC5(CC4)OCCO5)c3n2)cc1` [WYE132] the “suppression … (IFNγ)” value [1] was “substantially improved T cell response suppression as compared with Rapa, CC223 and OSI-027”.

With `COc1ccc(-c2ccc3c(N4CCOC[C@@H]4C)nc(N4CCOC[C@@H]4C)nc3n2)cc1CO` [AZD8055] the “suppression … (IFNγ)” value [1] was “substantially improved T cell response suppression as compared with Rapa, CC223 and OSI-027”.
